Measurements reported in patent publication US20100105877A1.

Target: GLP-1 receptor on RIN-m5F rat insulinoma cells (Rat) (UniProt P32301)
Test: cell-based or functional assay

Substance	In vitro titer (%): cAMP EC50 in RIN-m5F cells, relative to exendin-4 [%]
DA GLP-1(Lys20, 28)-PEG-Fc	2
Ser12 DA exendin-4(Lys27)-PEG-Fc	2.6
